From the RNAGym collection of RNA variant scans (doi:10.7554/elife.80360)

B1: Hairpin Ribozyme (parent)
chain: GUCCUCUUUCACGUGCGCGUGAAAGAGAGAAGUGAACCAGAGAAACACACGUUGUGGUAUAUUACCUGGUA

Variants of: B1
Test: self-cleavage, relative activity (ratio to wild type); higher = more cleavage; co-transcriptional

| Variant | self-cleavage |
| --- | --- |
| U2G A47U | 0.0492 |
| U2G A41C | 0.566 |
| U2A A26C | 0.311 |
| U2C U60C | 0.222 |
| U2C U60A | 0.312 |
| U2C U60G | 0.226 |
| G1C U8G | 0.216 |
| U2C G51U | 0.172 |
| U2C A36C | 0.17 |
| U2C A36U | 0.207 |
| U2G C16A | 0.398 |
| G1C G42A | 0.148 |
| G1C G42U | 0.145 |
| U2A G54C | 0.145 |
| U2A G54A | 0.143 |
| G1U G51U | 0.133 |
| G1C U60A | 0.123 |
| G1C U60G | 0.0347 |
| U2C C10G | 0.118 |
| U2C C10A | 0.117 |
| U2C C10U | 0.159 |
| U2A G40U | 0.129 |
| U2C C46U | 0.133 |
| U2A A28C | 0.258 |

| Variant | self-cleavage |
| --- | --- |
| U2A A28U | 0.136 |
| G1U U2C | 0.232 |
| U2C U8A | 0.191 |
| U2C U8G | 0.118 |
| U2A U58C | 0.21 |
| U2A U58G | 0.161 |
| U2G C66G | 0.124 |
| U2A C46G | 0.0818 |
| G1U G13A | 0.0563 |
| U2A A39G | 0.0775 |
| U2A A39C | 0.133 |
| U2C U70C | 0.16 |
| U2C U70G | 0.269 |
| U2C G54C | 0.127 |
| U2G G13A | 0.338 |
| U2G A23U | 0.265 |
| U2G G69C | 0.0755 |
| G1C U67G | 0.0946 |
| G1U C3U | 0.255 |
| U2C A61C | 0.0902 |
| U2A G27C | 0.108 |
| U2A G27A | 0.127 |
| U2G G42A | 0.0588 |
| G1U C50G | 0.124 |

| Variant | self-cleavage |
| --- | --- |
| U2A G57U | 0.109 |
| G1U G27C | 0.113 |
| U2G A45C | 0.0592 |
| U2G A45U | 0.0683 |
| U2G G27A | 0.139 |
| U2G G27U | 0.172 |
| U2G G51U | 0.389 |
| U2G G51A | 0.306 |
| G1U U52G | 0.143 |
| U2C G34C | 0.208 |
| U2C G34U | 0.316 |
| G1U A24C | 0.162 |
| G1U A24G | 0.0236 |
| U2A C4A | 0.165 |
| G1U U70A | 0.111 |
| G1U U70G | 0.0694 |
| U2G A49U | 0.053 |
| U2C U33C | 0.223 |
| U2C U33G | 0.0942 |
| G1U A71U | 0.167 |
| G1C G51A | 0.343 |
| G1U G17A | 0.2 |
| G1U G17C | 0.112 |
| G1U G32U | 0.0476 |

| Variant | self-cleavage |
| --- | --- |
| U2G A31G | 0.281 |
| U2G A31U | 0 |
| U2G A31C | 0.0758 |
| U2C A24G | 0.154 |
| G1C G29U | 0.129 |
| U2G U58C | 0.384 |
| U2A G42A | 0.107 |
| U2C G57C | 0.242 |
| U2G C3U | 0.181 |
| U2C G13U | 0.121 |
| U2C G13C | 0.121 |
| G1C U52A | 0.0569 |
| G1U A44U | 0.128 |
| U2G G57C | 0.117 |
| U2C G17A | 0.15 |
| U2C G17C | 0.168 |
| U2A G68C | 0.154 |
| G1U G21C | 0.112 |
| G1U G21U | 0.109 |
| U2A A61G | 0.106 |
| U2A A61U | 0.159 |
| U2G A64U | 0.0768 |
| G1U C4U | 0.206 |
| U2G G40A | 0.105 |

| Variant | self-cleavage |
| --- | --- |
| U2A U62G | 0.088 |
| U2G C65U | 0.163 |
| U2G C65A | 0.402 |
| U2C C18A | 0.118 |
| U2C C18G | 0.154 |
| U2A U5C | 0.137 |
| U2A U5A | 0.137 |
| U2A C48U | 0.104 |
| U2A C48G | 0.162 |
| U2C C37A | 0.0991 |
| U2C C16U | 0.163 |
| U2A G15C | 0.391 |
| U2G A44G | 0.0352 |
| G1U A64C | 0.166 |
| G1U A64U | 0.119 |
| U2C U62C | 0.203 |
| U2C C38G | 0.157 |
| U2C A23C | 0.144 |
| U2A C18U | 0.314 |
| U2C A35U | 0.259 |
| U2C A35G | 0.243 |
| U2C U53C | 0.0859 |
| U2C U53G | 0.0768 |
| U2A A44G | 0.119 |

| Variant | self-cleavage |
| --- | --- |
| U2G A59U | 0.0332 |
| U2G A59C | 0.223 |
| G1U G25A | 0.133 |
| G1U G25C | 0.0754 |
| G1U G25U | 0.21 |
| U2C G21C | 0.213 |
| U2C G21U | 0.185 |
| G1C U9C | 0.198 |
| U2A A64C | 0.112 |
| U2C C65A | 0.195 |
| U2A G13U | 0.186 |
| U2C A22C | 0.161 |
| U2A U60G | 0.222 |
| U2A U60C | 0.542 |
| U2A G69A | 0.215 |
| U2A A43C | 0.114 |
| G1C U5A | 0.133 |
| G1C U5G | 0.237 |
| U2G U70C | 0.12 |
| U2G U70G | 0.244 |
| U2C G68U | 0.161 |
| U2G U55A | 0.195 |
| U2G U55G | 0.367 |
| U2G U53C | 0.575 |

| Variant | self-cleavage |
| --- | --- |
| U2A A23G | 0.332 |
| G1U A47G | 0.046 |
| G1U A47C | 0.107 |
| U2A G21A | 0.204 |
| U2A G21C | 0.186 |
| G1U A30C | 0.178 |
| G1U A30U | 0.162 |
| U2C A45U | 0.0729 |
| U2A U55C | 0.153 |
| G1C U58C | 0.16 |
| U2A A30C | 0.162 |
| U2C A44C | 0.0731 |
| U2C A44G | 0.275 |
| U2C G42A | 0.0595 |
| U2C A43U | 0.177 |
| U2C A43C | 0.0996 |
| U2A A41C | 0.379 |
| U2A A41G | 0.0798 |
| G1U A49U | 0.0947 |
| G1U A49C | 0.202 |
| G1C U7A | 0.229 |
| G1C U7C | 0.488 |
| G1U U9A | 0.115 |
